The text below walks through data of paper PMC7081834.

This test has as its target Myc-PTEN wild type (human) (UniProt P60484). Put plainly: native gel or EMSA. Background: In EMSA bound probe runs differently from free probe, usually more slowly.

In general, stoichiometry N refers to the number of molecules, sites or subunits per partner or assembly. With “Myc-PTEN wild type, P60484 1-403 (natural protein; other documents disagree on this pair)”, the stoichiometry N is 2.
